Where “and” joins values, the source holds several entries; their conditions need not be identical. Identical values can stand only once.
Assays:
[1] = biological target: T1, human BCMA-His protein (human, UniProt Q02223 1-54); assay: SPR, antibody captured on Protein A chip, BCMA-His in solution, 1:1 Langmuir
T1 construct: Bought protein; also called human BCMA protein; BCMA antigen protein; not shown: His tag
T1 sequence (looked up): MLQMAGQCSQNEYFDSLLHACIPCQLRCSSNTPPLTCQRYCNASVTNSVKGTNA
Experimental: (§1) A sample buffer and a running buffer were HBS-EP+ (10 mM HEPES, 150 mM NaCl, 3 mM EDTA and 0.05% surfactant P20) (GE Healthcare; BR-1006-69). The flow-through cell was set to 25° C. The sample block was set to 16° C. Both were pretreated with the running buffer. In each cycle, an antibody to be tested was first captured with a Protein A chip, and then a single concentration of BCMA antigen protein was injected. The binding and dissociation processes of the antibody and the antigen protein were recorded, and finally Glycine pH 1.5 (GE Helthcare; BR-1003-54) was used to complete chip regeneration. Binding was measured by injecting different concentrations of BCMA-His in solution for 240 s with a flow rate of 30 μL/min. The concentration started from 200 nM (see the detailed results for the actual concentration in the test) and was diluted at 1:1, making a total of 5 concentrations. The dissociation phase was monitored for up to 600 s and was triggered by switching from sample solution to running buffer. The surface was regenerated by washing with a 10 mM glycine solution (pH 1.5) for 30 s at a flow rate of 30 μL/min. Bulk refractive index difference was corrected by subtracting the response obtained from the goat anti-human Fc surface. Blank injection was also subtracted (=double reference). For calculation of apparent KD and other kinetic parameters, Langmuir 1:1 model was used. The binding rate (Kₐ), dissociation rate (Kdis) and binding affinity (KD) of the chimeric antibodies to human BCMA protein are shown in the table, wherein REGN5459-hlgG1 and HPN217-hHcAb antibodies were used as controls.

[2] = biological target: T2, monkey BCMA-His protein (monkey, UniProt A0A2K5UD97 1-53); assay: ELISA, coated monkey BCMA-His
T2 construct: bought; monkey species not further stated for this product; also called monkey BCMA protein
T2 sequence (A0A2K5UD97 entry or part of it limits assumed): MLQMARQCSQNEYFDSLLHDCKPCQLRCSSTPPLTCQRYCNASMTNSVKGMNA

[3] = biological target: T3, human BCMA-His protein (human, UniProt Q02223 1-54); assay: ELISA, coated human BCMA-His
T3 construct: bought; also called human BCMA protein; not shown: His tag
T3 sequence (looked up): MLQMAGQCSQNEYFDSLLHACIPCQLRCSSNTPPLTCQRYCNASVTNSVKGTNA

[4] = biological target: T4, human BCMA on cells (human, UniProt Q02223 1-184); assay: FACS, RPMI8226 cells
T4 construct: whole, on cells; also called H929 cells; U266 cells
T4 sequence (looked up): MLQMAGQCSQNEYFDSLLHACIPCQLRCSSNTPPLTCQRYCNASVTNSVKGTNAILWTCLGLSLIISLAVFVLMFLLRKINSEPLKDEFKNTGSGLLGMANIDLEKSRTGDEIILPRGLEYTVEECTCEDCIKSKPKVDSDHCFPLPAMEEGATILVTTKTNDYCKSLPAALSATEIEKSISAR
Experimental: (§2) H929 cells, U266 cells and RPMI8226 cells were subjected to scale-up culture in T-75 cell culture flask to logarithmic growth phase, and the cells were pipetted to single cell suspension. After counting the cells, centrifugation was performed and the cell pellet was resuspended in FACS buffer (PBS+2% fetal calf serum) to 2×10⁶ cells per ml, and the obtained suspension was added to a 96-well FACS reaction plate at 50 μl per well.

[5] = biological target: T4, human BCMA on cells; assay: FACS, U266 cells
Experimental: as §2

[6] = biological target: T3, human BCMA-His protein; assay: competition ELISA, coated human BCMA; blocked ligand hAPRIL-biotin
[7] = biological target: T4, human BCMA on cells; assay: FACS, U266 cells; remark: listed apart in the source
Experimental: (§3) The desired cells were scale-up cultured in T-75 cell culture flasks to the logarithmic growth phase, and the cells were pipetted into a single cell suspension. After the cells were counted, the cells were centrifuged and the cell pellet was resuspended in FACS buffer (PBS+2% fetal calf serum) to 2×10⁶ cells per ml, and the suspension was added to the 96-well FACS reaction plate at 50 μl per well, then the sample to be tested of the chimeric antibody was added at 50 μl per well and the mixture was incubated at 4° C. for 1 h. The obtained mixture was centrifuged and washed 3 times with a PBS buffer. […] The obtained mixture was centrifuged and washed 3 times with a PBS buffer. 100 μl of the mixture was taken for detection and result analysis by FACS (FACS Canto™, purchased from BD Company). Data analysis was performed by software (FlowJo) to obtain the mean fluorescence intensity (MFI) of the cells. Then, a software (GraphPad Prism8) was used for analysis, data fitting and EC50 calculation. The results are shown in Table 10 and FIGS. 10A-10B, FIGS. 11A-11B, and FIGS. 12A-12B. All seven chimeric antibodies bind to three types of BCMA-expressing endogenous cells.

[8] = biological target: T4, human BCMA on cells; assay: FACS, H929 cells
Experimental: as §2

[9] = biological target: T4, human BCMA on cells; assay: FACS, H929 cells; remark: listed apart in the source
Experimental: as §3

[10] = biological target: T4, human BCMA on cells; assay: FACS, RPMI8226 cells; remark: listed apart in the source
Experimental: as §3

[11] = biological target: T5, BCMA expressed endogenously on U266 and H929 cells (UniProt Q02223 1-184, limits assumed); assay: FACS on U266 cells
T5 construct: whole, on cells; The cell line (U266 or H929) is named under assay in each row; also called B cell maturation antigen; CD269
T5 sequence (looked up): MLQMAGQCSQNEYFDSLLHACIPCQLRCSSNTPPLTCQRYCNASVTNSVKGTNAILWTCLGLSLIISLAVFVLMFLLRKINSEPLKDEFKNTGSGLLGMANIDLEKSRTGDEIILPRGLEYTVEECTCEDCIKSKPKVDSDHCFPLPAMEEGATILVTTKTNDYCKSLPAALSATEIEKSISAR
Experimental: as §3
The specific method was the same as that in Example 5 (C). First, the binding of humanized antibodies to U266 cells was detected. Based on the results, some humanized antibodies were selected and tested for binding to H929 cells. […]

[12] = biological target: T6, human BCMA-His protein (human, UniProt Q02223 1-54); assay: SPR, antibody captured on Protein A chip, BCMA-His as analyte
T6 construct: Analyte in the SPR assay; also called human BCMA protein; BCMA antigen protein; not shown: His tag
T6 sequence (looked up): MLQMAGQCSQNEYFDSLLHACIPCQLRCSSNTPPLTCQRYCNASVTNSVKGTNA
Experimental: as §1
The specific method was the same as that in Example 6. The binding rate (Kₐ), dissociation rate (Kdis) and binding affinity (KD) of the humanized antibodies to human BCMA protein are shown Table 38, wherein REGN5459-hlgG1 antibody is used as a control.

B1: HPN217-hHcAb (VHH)
VHH: EVQLVESGGGLVQPGRSLTLSCAASTNIFSISPYGWYRQAPGKQRELVAAIHGTSTLYADSVKGRFTISRDNAKNSIYLQMNSLRPEDTALYYCNKVPWGDYHPGNVYWGQGTQVTVSS
notes: also called control antibody
Kd [1]: 0.818 nM
koff [1]: 0.00273 s⁻¹
kon [1]: 3.34e+06 M⁻¹ s⁻¹

B2: REGN5459-hIgG1 (antibody, V domains shown)
VH: EVQLVESGGGLVQPGGSLRLSCAASGFTFSNFWMTWVRQAPGKGLEWVANMNQDGSEKYYVDSVKGRFTISRDNAKSSLYLQMNSLRAEDTAVYYCARDREYCISTSCYDDFDYWGQGTLVTVSS
VL: not shown
EC50 (read off the curve) [2]: ~0.1 nM
EC50 (read off the curve) [3]: ~0.1 nM
EC50 [4]: 10.4 nM
EC50 [5]: 9.12 nM
IC50 (read off the curve) [6]: ~5 nM
EC50 [7]: 9.52 nM and 12.8 nM
EC50 [8]: 6.78 nM
EC50 [9]: 8.39 nM and 7.74 nM
EC50 [10]: 6.79 nM and 4.52 nM

B3: REGN5459-hIgG1 (antibody, V domains shown)
VH: EVQLVESGGGLVQPGGSLRLSCAASGFTFSNFWMTWVRQAPGKGLEWVANMNQDGSEKYYVDSVKGRFTISRDNAKSSLYLQMNSLRAEDTAVYYCARDREYCISTSCYDDFDYWGQGTLVTVSS
VL: not shown
notes: also called REGN5459-hlgG1; control antibody
Kd [1]: 0.2 nM
koff [1]: 0.00017 s⁻¹
kon [1]: 850000 M⁻¹ s⁻¹

B4: REGN5459-hIgG1 (antibody, V domains shown)
VH: EVQLVESGGGLVQPGGSLRLSCAASGFTFSNFWMTWVRQAPGKGLEWVANMNQDGSEKYYVDSVKGRFTISRDNAKSSLYLQMNSLRAEDTAVYYCARDREYCISTSCYDDFDYWGQGTLVTVSS
VL: not shown
notes: Positive control antibody
EC50 [11]: 9.81 nM and 19.4 nM and 9.49 nM and 18.2 nM
Kd [12]: 0.233 nM
koff [12]: 0.000178 s⁻¹
kon [12]: 766000 M⁻¹ s⁻¹
